Consider 2 substances from PMC5035592.

The target in assay [1] is platelet glycoprotein Ib alpha (UniProt P07359). Briefly: VWF:GPIb binding assay.
For assay [2], the target named is equine collagen (Horm), a mixture of 95 % collagen type I and 5 % type III (equine). Briefly: VWF collagen binding assay.

“plasma von Willebrand factor of a normal person (from UniProt P04275-1 764-2813) (natural protein)”: in assay [1], the ratio of VWF:GPIbα binding to VWF:Ag came to 1.06.

In the case of “recombinant wild type von Willebrand factor (from UniProt P04275-1 764-2813) (natural protein)”, the ratio of VWF:CB to VWF:Ag in medium (in relation to rwtVWF) in assay [2] amounted to 1. In addition, in assay [1], the VWF:GPIbα binding (in relation to rwtVWF) was 1 and the ratio of VWF:GPIbα binding to VWF:Ag in medium (in relation to rwtVWF) was 1.
